Measured values reported in patent US20260125454A1 (SHANGHAI JUNSHI BIOSCIENCES, published 2026).

T1: Biotin-huCGRPaSA (human, not fully specified; biotin (position not given))
T1 construct: exact construct ('aSA') not explained; also called Biotin CGRPaSA; full-length (1-37) CGRP
T1 peptide: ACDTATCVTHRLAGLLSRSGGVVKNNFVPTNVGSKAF


Target: T1, Biotin-huCGRPaSA
Experiment: ELISA, supernatant; relative to chimeric C245
Method: Biotin CGRPaSA was diluted with PBS (Hyclone) to 1.0 μg/mL, and the dilution was added to a microplate at 100 μL/well. The plate was let stand in an incubator at 37° C. and coated for 90 min and then washed, and 2% BSA was added to the plate at 200 μL/well. The plate was incubated in an incubator at 37° C. for 90 min and then washed. The humanized antibodies in Table 8 and the reference antibody (chimeric antibody C245) were diluted to 1000 ng/mL with a diluent (2% BSA) with a dilution factor of not more than 10. Then, the chimeric antibodies and the reference antibody were serially 2.5-fold diluted on a sample dilution plate. All the chimeric antibody solutions and the reference antibody solution were added into plates at 100 μL/well, and the plates were incubated in a thermostat incubator at 37° C. for 60 min and washed. An HRP-conjugated goat anti-human antibody IgG (manufacturer: Sigma, Cat. No. A0170; Fc specificity) was diluted 5000-fold with 2% BSA and added into the plates at 100 μL/well, and the plates were incubated in the thermostat incubator at 37° C. for 60 min and washed. Chromogenic reagent TMB was carefully added at 100 μL/well to avoid bubbles, and the system was incubated at 37° C. for 15 min away from light for chromogenic reaction. Finally, a 2 M hydrochloric acid solution was added at 100 μL/well to stop the reaction while avoiding bubbles, and the plates were read on a microplate reader within 10 min (wavelength: 450/620 nm).

Row | Binder | Relative binding activity, % [%]
1 | hu106 (antibody, V domains shown, 2B8 HC1-1/1A2 LC2-2) VH: QVQLVQSGAEVKKPGASVKVSCKASGYTFTDYNMHWVRQAPGQGLEWMGNIYPYNGGTVYNQKFNNRVTLTVDTSSSTAYMELSRLRSDDTAVYYCAREGLGGYWGQGTLVTVSS VL: DIVLTQSPASLAVSPGQRATITCKASQNIDYDGYAYLNWYQQKPGQPPKVLIYSVFNLESGVPARFSGSGSGTDFTLTINPVEADDTANYYCQQSNEFPYTFGQGTKLEIK | 38
2 | hu176 (antibody, V domains shown, 3E5 HC-3/1F5 LC1-3) VH: QVQLVQSGAEVKKPGASVKVSCKASGYTFTDYNMHWVRQAPGQGLEWMGYISPYNGGTAYNQKFKFRVTLTVDTSSSTAYMELSRLRSDDTVVYYCAREGLGGYWGQGTLVTVSS VL: DIVLTQSPASLAVSPGQRATITCKASQNIDFDGYAYMNWYQQKPGQPPKVLIYSVFNLESGVPARFSGSGSGTDFTLTINPVEADDTANYYCQQSHEVPYTFGQGTKLEIK | 65
3 | hu183 (antibody, V domains shown, 3E5 HC-4/1A2 LC2-1) VH: QVQLVQSGAEVKKPGASVKVSCKTSGYTFTDYNMHWVRQAPGQRLEWMGYISPYNAGTAYNQKFKFRVTLTVDTSSSTAYMELSSLRSEDTAVYYCAREGLGGYWGQGTLVTVSS VL: DIVLTQSPASLAVSPGQRATITCKASQNIDYDGYAYLNWYQQKPGQPPKVLIYSVFNLESGVPARFSGSGSGTDFTLTINPVEANDTANYYCQQSNEFPYTFGQGTKLEIK | 26
4 | hu163 (antibody, V domains shown, 3E5 HC-2/1F5 LC1-3) VH: QVQLVQSGAEVKKPGASVKVSCKASGYTFTDYNMHWVRQAPGQRLEWMGYISPYNGGTAYNQKFKFRVTLTVDTSSSTAYMELSSLRSEDTAVYYCAREGLGGYWGQGTLVTVSS VL: DIVLTQSPASLAVSPGQRATITCKASQNIDFDGYAYMNWYQQKPGQPPKVLIYSVFNLESGVPARFSGSGSGTDFTLTINPVEADDTANYYCQQSHEVPYTFGQGTKLEIK | 78
5 | hu184 (antibody, V domains shown, 3E5 HC-4/1A2 LC2-2) VH: QVQLVQSGAEVKKPGASVKVSCKTSGYTFTDYNMHWVRQAPGQRLEWMGYISPYNAGTAYNQKFKFRVTLTVDTSSSTAYMELSSLRSEDTAVYYCAREGLGGYWGQGTLVTVSS VL: DIVLTQSPASLAVSPGQRATITCKASQNIDYDGYAYLNWYQQKPGQPPKVLIYSVFNLESGVPARFSGSGSGTDFTLTINPVEADDTANYYCQQSNEFPYTFGQGTKLEIK | 23
6 | hu119 (antibody, V domains shown, 2B8 HC1-2/1A2 LC2-2) VH: QVQLVQSGAEVKKPGASVKVSCKASGYTFTDYNMHWVRQAPGQGLEWMGNIYPYNGGTVYNQKFNNRVTLTVDTSSSTAYMELRSLRSDDTAVYYCAREGLGGYWGQGTLVTVSS VL: DIVLTQSPASLAVSPGQRATITCKASQNIDYDGYAYLNWYQQKPGQPPKVLIYSVFNLESGVPARFSGSGSGTDFTLTINPVEADDTANYYCQQSNEFPYTFGQGTKLEIK | 51
7 | hu196 (antibody, V domains shown, 3H10 HC-1/1A2 LC2-1) VH: QVQLVQSGAEVKKPGASVKVSCKASGYTFTDYNMHWVRQAPGQGLEWMGYIYPYNGHTVYNQKFRNRVTMTVDTSSSTAYMELRSLRSDDTAVYYCAKEGLGGYWGQGTLVTVSS VL: DIVLTQSPASLAVSPGQRATITCKASQNIDYDGYAYLNWYQQKPGQPPKVLIYSVFNLESGVPARFSGSGSGTDFTLTINPVEANDTANYYCQQSNEFPYTFGQGTKLEIK | 45
8 | hu118 (antibody, V domains shown, 2B8 HC1-2/1A2 LC2-1) VH: QVQLVQSGAEVKKPGASVKVSCKASGYTFTDYNMHWVRQAPGQGLEWMGNIYPYNGGTVYNQKFNNRVTLTVDTSSSTAYMELRSLRSDDTAVYYCAREGLGGYWGQGTLVTVSS VL: DIVLTQSPASLAVSPGQRATITCKASQNIDYDGYAYLNWYQQKPGQPPKVLIYSVFNLESGVPARFSGSGSGTDFTLTINPVEANDTANYYCQQSNEFPYTFGQGTKLEIK | 60
9 | hu157 (antibody, V domains shown, 3E5 HC-2/1A2 LC2-1) VH: QVQLVQSGAEVKKPGASVKVSCKASGYTFTDYNMHWVRQAPGQRLEWMGYISPYNGGTAYNQKFKFRVTLTVDTSSSTAYMELSSLRSEDTAVYYCAREGLGGYWGQGTLVTVSS VL: DIVLTQSPASLAVSPGQRATITCKASQNIDYDGYAYLNWYQQKPGQPPKVLIYSVFNLESGVPARFSGSGSGTDFTLTINPVEANDTANYYCQQSNEFPYTFGQGTKLEIK | 15
10 | hu170 (antibody, V domains shown, 3E5 HC-3/1A2 LC2-1) VH: QVQLVQSGAEVKKPGASVKVSCKASGYTFTDYNMHWVRQAPGQGLEWMGYISPYNGGTAYNQKFKFRVTLTVDTSSSTAYMELSRLRSDDTVVYYCAREGLGGYWGQGTLVTVSS VL: DIVLTQSPASLAVSPGQRATITCKASQNIDYDGYAYLNWYQQKPGQPPKVLIYSVFNLESGVPARFSGSGSGTDFTLTINPVEANDTANYYCQQSNEFPYTFGQGTKLEIK | 75
11 | hu144 (antibody, V domains shown, 3E5 HC-1/1A2 LC2-1) VH: QVQLVQSGAEVKKPGASVKVSCKTSGYTFTDYNMHWVRQAPGQRLEWMGYISPYNGGTAYNQKFKFRVTLTVDTSSSTAYMELSSLRSEDTAVYYCAREGLGGYWGQGTLVTVSS VL: DIVLTQSPASLAVSPGQRATITCKASQNIDYDGYAYLNWYQQKPGQPPKVLIYSVFNLESGVPARFSGSGSGTDFTLTINPVEANDTANYYCQQSNEFPYTFGQGTKLEIK | 101
12 | hu132 (antibody, V domains shown, 2B8 HC1-3/1A2 LC2-2) VH: QVQLVQSGAEVKKPGASVKVSCKASGYTFTDYNMHWVRQAPGQGLEWMGNIYPYNAGTVYNQKFNNRVTLTVDTSSSTAYMELSRLRSDDTAVYYCAREGLGGYWGQGTLVTVSS VL: DIVLTQSPASLAVSPGQRATITCKASQNIDYDGYAYLNWYQQKPGQPPKVLIYSVFNLESGVPARFSGSGSGTDFTLTINPVEADDTANYYCQQSNEFPYTFGQGTKLEIK | 108
13 | hu111 (antibody, V domains shown, 2B8 HC1-1/1F5 LC1-3) VH: QVQLVQSGAEVKKPGASVKVSCKASGYTFTDYNMHWVRQAPGQGLEWMGNIYPYNGGTVYNQKFNNRVTLTVDTSSSTAYMELSRLRSDDTAVYYCAREGLGGYWGQGTLVTVSS VL: DIVLTQSPASLAVSPGQRATITCKASQNIDFDGYAYMNWYQQKPGQPPKVLIYSVFNLESGVPARFSGSGSGTDFTLTINPVEADDTANYYCQQSHEVPYTFGQGTKLEIK | 46
14 | hu137 (antibody, V domains shown, 2B8 HC1-3/1F5 LC1-3) VH: QVQLVQSGAEVKKPGASVKVSCKASGYTFTDYNMHWVRQAPGQGLEWMGNIYPYNAGTVYNQKFNNRVTLTVDTSSSTAYMELSRLRSDDTAVYYCAREGLGGYWGQGTLVTVSS VL: DIVLTQSPASLAVSPGQRATITCKASQNIDFDGYAYMNWYQQKPGQPPKVLIYSVFNLESGVPARFSGSGSGTDFTLTINPVEADDTANYYCQQSHEVPYTFGQGTKLEIK | 93
15 | hu158 (antibody, V domains shown, 3E5 HC-2/1A2 LC2-2) VH: QVQLVQSGAEVKKPGASVKVSCKASGYTFTDYNMHWVRQAPGQRLEWMGYISPYNGGTAYNQKFKFRVTLTVDTSSSTAYMELSSLRSEDTAVYYCAREGLGGYWGQGTLVTVSS VL: DIVLTQSPASLAVSPGQRATITCKASQNIDYDGYAYLNWYQQKPGQPPKVLIYSVFNLESGVPARFSGSGSGTDFTLTINPVEADDTANYYCQQSNEFPYTFGQGTKLEIK | 71
16 | hu124 (antibody, V domains shown, 2B8 HC1-2/1F5 LC1-3) VH: QVQLVQSGAEVKKPGASVKVSCKASGYTFTDYNMHWVRQAPGQGLEWMGNIYPYNGGTVYNQKFNNRVTLTVDTSSSTAYMELRSLRSDDTAVYYCAREGLGGYWGQGTLVTVSS VL: DIVLTQSPASLAVSPGQRATITCKASQNIDFDGYAYMNWYQQKPGQPPKVLIYSVFNLESGVPARFSGSGSGTDFTLTINPVEADDTANYYCQQSHEVPYTFGQGTKLEIK | 96
17 | hu202 (antibody, V domains shown, 3H10 HC-1/1F5 LC1-3) VH: QVQLVQSGAEVKKPGASVKVSCKASGYTFTDYNMHWVRQAPGQGLEWMGYIYPYNGHTVYNQKFRNRVTMTVDTSSSTAYMELRSLRSDDTAVYYCAKEGLGGYWGQGTLVTVSS VL: DIVLTQSPASLAVSPGQRATITCKASQNIDFDGYAYMNWYQQKPGQPPKVLIYSVFNLESGVPARFSGSGSGTDFTLTINPVEADDTANYYCQQSHEVPYTFGQGTKLEIK | 90
18 | hu197 (antibody, V domains shown, 3H10 HC-1/1A2 LC2-2) VH: QVQLVQSGAEVKKPGASVKVSCKASGYTFTDYNMHWVRQAPGQGLEWMGYIYPYNGHTVYNQKFRNRVTMTVDTSSSTAYMELRSLRSDDTAVYYCAKEGLGGYWGQGTLVTVSS VL: DIVLTQSPASLAVSPGQRATITCKASQNIDYDGYAYLNWYQQKPGQPPKVLIYSVFNLESGVPARFSGSGSGTDFTLTINPVEADDTANYYCQQSNEFPYTFGQGTKLEIK | 49
19 | hu171 (antibody, V domains shown, 3E5 HC-3/1A2 LC2-2) VH: QVQLVQSGAEVKKPGASVKVSCKASGYTFTDYNMHWVRQAPGQGLEWMGYISPYNGGTAYNQKFKFRVTLTVDTSSSTAYMELSRLRSDDTVVYYCAREGLGGYWGQGTLVTVSS VL: DIVLTQSPASLAVSPGQRATITCKASQNIDYDGYAYLNWYQQKPGQPPKVLIYSVFNLESGVPARFSGSGSGTDFTLTINPVEADDTANYYCQQSNEFPYTFGQGTKLEIK | 63
